Laboratory results: the supplement of paper PMC11780869

System: Bacillus subtilis
Assay: cleaved RNA product abundance (RNA/gDNA barcode ratio) relative to median wild-type variant (ratio to wild type); higher = more accumulation of the downstream cleavage product
Settings: experiment (reporter, strain, medium): exp 8a: truncated aprE reporter, strain BJT201 with 2% xylose (RNase J1 expressed); cleavage site: glnRA (positions -5 to +31 mutated)
Summary of the method: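 Sequencing of barcodes from gel-selected, reverse-transcribed cleaved RNA and from genomic DNA, with UMI collapsing, yielded a per-construct RNA:gDNA ratio. Scaled to the median construct with the unmutated site, this ratio is the cleaved product abundance. The barcoded reporters (truncated aprE or tetM mRNAs with mutagenized RNase Y cleavage-site windows) were integrated into the B. subtilis chromosome, and cultures grew in LB at 37°C from OD600 0.0003 to 0.3.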

Going from “CGACATGTCCCGCTTCTTTCATTAATCCTTTAGCAACTGTTTCGCTATATACATTTACCTTTTAAGAGGAGGAAT” to “CGACATGTCCCGCTTCTTTCATTAATCCTTTAGCAACTGTTTTACTATATACATTTACCTTTTAAGAGGAGGAAT”, the “cleaved RNA product abundance” value rises from 0.282 to 0.513.

Compared with “CGACATGTCCCGCTTCTTTCATTAATCCTTTAGCAACTGTTTTCCTATATACATTTACCTTTTAAGAGGAGGAAT”, “CGACATGTCCCGCTTCTTTCATTAATCCTTTAGCAACTGTTTTGATATATACATTTACCTTTTAAGAGGAGGAAT” is higher in “cleaved RNA product abundance” value: 0.283 for the first, 0.374 for the second.

Compared with “CGACATGTCCCGCTTCTTTCATTAATCCTTTAGCAACTGTTTTGCAATATACATTTACCTTTTAAGAGGAGGAAT”, “CGACATGTCCCGCTTCTTTCATTAATCCTTTAGCAACTGTTTTGCCATATACATTTACCTTTTAAGAGGAGGAAT” is lower in “cleaved RNA product abundance” value: 0.453 for the first, 0.2 for the second.

Going from “CGACATGTCCCGCTTCTTTCATTAATCCTTTAGCAACTGTTTTGCGATATACATTTACCTTTTAAGAGGAGGAAT” to “CGACATGTCCCGCTTCTTTCATTAATCCTTTAGCAACTGTTTTGCGATATACATTTACTTTTTAAGAGGAGGAAT”, the “cleaved RNA product abundance” value rises from 0.366 to 0.438.

Compared with “CGACATGTCCCGCTTCTTTCATTAATCCTTTAGCAACTGTTTTGCTATAAACATTTACCTTTTAAGAGGAGGAAT”, “CGACATGTCCCGCTTCTTTCATTAATCCTTTAGCAACTGTTTTGCTATACACATTTACCTTTTAAGAGGAGGAAT” is higher in “cleaved RNA product abundance” value: 0.176 for the first, 0.451 for the second.

Compared with “CGACATGTCCCGCTTCTTTCATTAATCCTTTAGCAACTGTTTTGCTATATACAATTACCTTTTAAGAGGAGGAAT”, “CGACATGTCCCGCTTCTTTCATTAATCCTTTAGCAACTGTTTTGCTATATACAGTTACCTTTTAAGAGGAGGAAT” is lower in “cleaved RNA product abundance” value: 0.889 for the first, 0.604 for the second.

Going from “CGACATGTCCCGCTTCTTTCATTAATCCTTTAGCAACTGTTTTGCTATATACATATACCTTTTAAGAGGAGGAAT” to “CGACATGTCCCGCTTCTTTCATTAATCCTTTAGCAACTGTTTTGCTATATACATTAACCTTTTAAGAGGAGGAAT”, the “cleaved RNA product abundance” value rises from 0.842 to 0.846.

Going from “CGACATGTCCCGCTTCTTTCATTAATCCTTTAGCAACTGTTTTGCTATATACATTGACCTTTTAAGAGGAGGAAT” to “CGACATGTCCCGCTTCTTTCATTAATCCTTTAGCAACTGTTTTGCTATATACATTTACATTTTAAGAGGAGGAAT”, the “cleaved RNA product abundance” value rises from 0.333 to 0.783.

First: CGACATGTCCCGCTTCTTTCATTAATCCTTTAGCAACTGTTTTGCTATATACATTTACCATTTAAGAGGAGGAAT
Second: CGACATGTCCCGCTTCTTTCATTAATCCTTTAGCAACTGTTTTGCTATATACATTTACCTTTTAAGAGGAGGAAT
The “cleaved RNA product abundance” value of the first is higher: 0.837 for the first, 0.612 for the second.

Going from “CGACATGTCCCGCTTCTTTCATTAATCCTTTAGCAACTGTTTTGCTATATACATTTATCTTTTAAGAGGAGGAAT” to “CGACATGTCCCGCTTCTTTCATTAATCCTTTAGCAACTGTTTTGCTATATACATTTCCCTTTTAAGAGGAGGAAT”, the “cleaved RNA product abundance” value falls from 0.826 to 0.343.

Compared with “CGACATGTCCCGCTTCTTTCATTAATCCTTTAGCAACTGTTTTGCTATATATATTTACCTTTTAAGAGGAGGAAT”, “CGACATGTCCCGCTTCTTTCATTAATCCTTTAGCAACTGTTTTGCTTTATACATTTACCTTTTAAGAGGAGGAAT” is lower in “cleaved RNA product abundance” value: 0.909 for the first, 0.174 for the second.

Compared with “CGACATGTCCCGCTTCTTTCATTAATCCTTTAGCAACTGTTTTGTTATATACATTTACCTTTTAAGAGGAGGAAT”, “CGACATGTCCCGCTTCTTTCATTAATCCTTTAGCAACTGTTTTTCTATATACATTTACCTTTTAAGAGGAGGAAT” is lower in “cleaved RNA product abundance” value: 0.553 for the first, 0.478 for the second.

Compared with “CGACATGTCCCGCTTCTTTCATTAATCCTTTAGCAAGTGTTTTGCTATATACATTTACCTTTTAAGAGGAGGAAT”, “CGACATGTCCCGCTTCTTTCATTAATCCTTTAGCATCTCTTTTGCTATATACATTTACCTTTTAAGAGGAGGAAT” is lower in “cleaved RNA product abundance” value: 0.82 for the first, 0.512 for the second.

First: CGACATGTCCCGCTTCTTTCATTAATCCTTTAGCCACTGTTTTGCTATATACATTTACCTTTTAAGAGGAGGAAT
Second: CGACATGTCCCGCTTCTTTCATTAATCCTTTAGTAACTGTTTTGCTATATACATTTACCTTTTAAGAGGAGGAAT
The “cleaved RNA product abundance” value of the first is lower: 0.253 for the first, 0.378 for the second.

Compared with “CGACATGTCCCGCTTCTTTCATTAATCCTTTCGCAACTGTTTTGCTATATACATTTACCTTTTAAGAGGAGGAAT”, “CGACATGTCCCGCTTCTTTCATTAATCGATTAGCAACTGTTTTGCTATATACATTTACCTTTTAAGAGGAGGAAT” is higher in “cleaved RNA product abundance” value: 0.299 for the first, 0.79 for the second.

Going from “CGACATGTCCCGCTTCTTTCATTAATCGCTTAGCAACTGTTTTGCTATATACATTTACCTTTTAAGAGGAGGAAT” to “CGACATGTCCCGCTTCTTTCATTAATCGGTTAACAAATGTTGTGCTATAGACATTTACCTTTTAAGAGGAGGAAT”, the “cleaved RNA product abundance” value falls from 0.335 to 0.209.

Compared with “CGACATGTCCCGCTTCTTTCATTAATCGGTTAGAAACTGTTTTGCTATATACATTTACCTTTTAAGAGGAGGAAT”, “CGACATGTCCCGCTTCTTTCATTAATCGGTTAGCAACAGTTTTGCTATATACATTTACCTTTTAAGAGGAGGAAT” is higher in “cleaved RNA product abundance” value: 0.222 for the first, 0.927 for the second.

Compared with “CGACATGTCCCGCTTCTTTCATTAATCGGTTAGCAACTGTTTTGATATATACATTTACCTTTTAAGAGGAGGAAT”, “CGACATGTCCCGCTTCTTTCATTAATCGGTTAGCAACTGTTTTGCAATATACATTTACCTTTTAAGAGGAGGAAT” is lower in “cleaved RNA product abundance” value: 0.356 for the first, 0.349 for the second.

Going from “CGACATGTCCCGCTTCTTTCATTAATCGGTTAGCAACTGTTTTGCTATAAACATTTACCTTTTAAGAGGAGGAAT” to “CGACATGTCCCGCTTCTTTCATTAATCGGTTAGCAACTGTTTTGCTATATACATTAACCTTTTAAGAGGAGGAAT”, the “cleaved RNA product abundance” value rises from 0.876 to 1.51.

Going from “CGACATGTCCCGCTTCTTTCATTAATCGGTTAGCAACTGTTTTGCTATATACATTTACCTTTTAAGAGGAGGAAT” to “CGACATGTCCCGCTTCTTTCATTAATCGGTTAGCAACTGTTTTGCTATATATATTTACCTTTTAAGAGGAGGAAT”, the “cleaved RNA product abundance” value rises from 0.613 to 0.947.

Going from “CGACATGTCCCGCTTCTTTCATTAATCGGTTAGCAACTGTTTTGCTATCTACATTTACCTTTTAAGAGGAGGAAT” to “CGACATGTCCCGCTTCTTTCATTAATCGGTTATCAACTGTTTTGCTATATACATTTACCTTTTAAGAGGAGGAAT”, the “cleaved RNA product abundance” value rises from 0.132 to 0.206.

Going from “CGACATGTCCCGCTTCTTTCATTAATCTATTAGCAACTGTTTTGCTATTTACATTTACCTTTTAAGAGGAGGAAT” to “CGACATGTCCCGCTTCTTTCATTAATCTGATAGCAACTGTTTTGCTATATACATTTACCTTTTAAGAGGAGGAAT”, the “cleaved RNA product abundance” value rises from 0.311 to 0.81.

Compared with “CGACATGTCCCGCTTCTTTCATTAATCTGTAAGCAACTGTTTTGCTATATACATTTACCTTTTAAGAGGAGGAAT”, “CGACATGTCCCGCTTCTTTCATTAATCTGTGAGCAACTGTTTTGCTATATACATTTACCTTTTAAGAGGAGGAAT” is higher in “cleaved RNA product abundance” value: 0.539 for the first, 0.777 for the second.

Going from “CGACATGTCCCGCTTCTTTCATTAATCTGTTAACAACTGTTTTGCTATATACATTTACCTTTTAAGAGGAGGAAT” to “CGACATGTCCCGCTTCTTTCATTAATCTGTTAGAAACTGTTTTGCTATATACATTTACCTTTTAAGAGGAGGAAT”, the “cleaved RNA product abundance” value rises from 0.238 to 0.269.

First: CGACATGTCCCGCTTCTTTCATTAATCTGTTAGCAACAGTTTTGCTATATACATTTACCTTTTAAGAGGAGGAAT
Second: CGACATGTCCCGCTTCTTTCATTAATCTGTTAGCAACCGTTTTGCTATATACATTTACCTTTTAAGAGGAGGAAT
The “cleaved RNA product abundance” value of the first is higher: 0.686 for the first, 0.436 for the second.

Compared with “CGACATGTCCCGCTTCTTTCATTAATCTGTTAGCAACTATTTTGCTATATACATTTACCTTTTAAGAGGAGGAAT”, “CGACATGTCCCGCTTCTTTCATTAATCTGTTAGCAACTGTTATCCTATATACATTTACCTTTTAAGAGGAGGAAT” is lower in “cleaved RNA product abundance” value: 1.77 for the first, 0.577 for the second.

Going from “CGACATGTCCCGCTTCTTTCATTAATCTGTTAGCAACTGTTATGCTATATACATTTACCTTTTAAGAGGAGGAAT” to “CGACATGTCCCGCTTCTTTCATTAATCTGTTAGCAACTGTTCTGCTATATACATTTACCTTTTAAGAGGAGGAAT”, the “cleaved RNA product abundance” value falls from 0.799 to 0.368.

Going from “CGACATGTCCCGCTTCTTTCATTAATCTGTTAGCAACTGTTTAGCTATATACATTTACCTTTTAAGAGGAGGAAT” to “CGACATGTCCCGCTTCTTTCATTAATCTGTTAGCAACTGTTTGGCTATATACATTTACCTTTTAAGAGGAGGAAT”, the “cleaved RNA product abundance” value falls from 0.727 to 0.476.

Compared with “CGACATGTCCCGCTTCTTTCATTAATCTGTTAGCAACTGTTTTACTATATACATTTACCTTTTAAGAGGAGGAAT”, “CGACATGTCCCGCTTCTTTCATTAATCTGTTAGCAACTGTTTTGATATATACATTTACCTTTTAAGAGGAGGAAT” is higher in “cleaved RNA product abundance” value: 0.541 for the first, 0.562 for the second.

Compared with “CGACATGTCCCGCTTCTTTCATTAATCTGTTAGCAACTGTTTTGCCATATACATTTACCTTTTAAGAGGAGGAAT”, “CGACATGTCCCGCTTCTTTCATTAATCTGTTAGCAACTGTTTTGCTAAATACATTTACCTTTTAAGAGGAGGAAT” is higher in “cleaved RNA product abundance” value: 0.108 for the first, 1.01 for the second.

With “CGACATGTCCCGCTTCTTTCATTAATCTGTTAGCAACTGTTTTGCTATAAACATTTACCTTTTAAGAGGAGGAAT” the “cleaved RNA product abundance” value was 0.917.
